Key:
[1] = target: T1, mouse Fn14-mouse Fc fusion protein (mouse, UniProt Q9CR75 28-75); test: ELISA, Fn14-Fc fusion coated on plate, HRP anti-mouse kappa detection
T1 construct: range 1-75; Fn14 part cloned via EcoRI/EcoRV into the multicloning site of pFUSE-mIgG2B-Fc1; not shown: mouse Fc region: mIgG2B-Fc region of vector pFUSE-mIgG2B-Fc1 (InvivoGen)
Experimental: (§1) Binding activities of 4-1h and 4-1m acquired in Example 4 to a Fn14 protein were evaluated. The human Fn14-human Fc fusion protein and the mouse Fn14-mouse Fc fusion protein acquired in Example 1 were diluted in phosphate buffered saline (PBS) at 1 μg/mL and added to a MaxiSorp 384-well transparent plate (Nunc, 464718) at 15 μL/well. Incubation was performed overnight at 4° C. for Immobilization. On the next day, the solid phase liquid was removed, and washing was performed with a 0.05% Tween-20-containing Tris-buffered saline (TBS-T). PBS containing 20% Blocking One (Nacalai tesque, Inc., 03953-95) was added thereto at […]. The resultant was left at room temperature for 1 hour, and then washed with TBS-T. A dilution series of 4-1h or 4-1m acquired in Example 4 was prepared by dilution in 12 steps with a 4-fold common ratio from a maximum concentration of 30 μg/mL using TBS-T containing 5% Blocking One (hereinafter, referred to as a diluent), and added at 20 μL/well. […] Then, the reaction was stopped by adding a 2M sulfuric acid, and the absorbance at 450 nm was measured with SpectraMax Paradigm (Molecular Devices, LLC). The test was performed in duplicate, and EC₅₀ values were calculated by 4-parameter logistic curve fitting.

[2] = target: T2, human Fn14-human Fc fusion protein (human, UniProt Q9NP84 28-79); test: as above
T2 construct: range 1-79; Purified from CHO-K1SV culture supernatant; coated on the ELISA plate
T2 sequence: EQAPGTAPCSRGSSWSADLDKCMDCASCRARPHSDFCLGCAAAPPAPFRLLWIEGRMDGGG
Experimental: as §1

[3] = target: T3, human Fn14 on cells (NFkB/HEK293 reporter cells, A375 cells) (human, UniProt Q9NP84 28-129); test: cell-based or functional assay
T3 sequence (looked up): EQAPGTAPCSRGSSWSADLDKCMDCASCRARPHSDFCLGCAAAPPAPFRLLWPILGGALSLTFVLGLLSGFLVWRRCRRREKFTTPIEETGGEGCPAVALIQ

[4] = target: T1, mouse Fn14-mouse Fc fusion protein; test: ELISA, Fn14-Fc fusion coated on plate, HRP anti-human kappa detection
Experimental: as §1

[5] = target: T2, human Fn14-human Fc fusion protein; test: as above
Experimental: as §1

T1 sequence (Q9CR75 28-75 limits assumed): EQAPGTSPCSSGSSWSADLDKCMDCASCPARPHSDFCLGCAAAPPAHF

B1: murinized anti-human Fn14 antibody 4-1m (antibody, mouse IgG2a, kappa, V domains shown)
VH: DVQLQESGPGLVKPSQSLSLTCAVYGGSFSGYYWSWIRQFPGNKLEWMGEINHRGSTNSNPSLKSRISITVDTSKNQFFLQLNSVTTEDTATYYCAREGISGSMGIYDYSGMDVWGQGTLVTVSA
VL: DIVMSQSPSSLAVSVGEKVTMSCKSRQSILYSSNNKNYLTWYQQKPGQSPKLLIYWASTRESGVPDRFTGSGSGTDFTLTISSVKAEDLAVYYCQQYYSTPYTFGSGTKLEIKR
notes: Framework regions of 4-1h partially substituted with mouse FR; mouse kappa light chain; also called murinized antibody of 4-1h
B1 gave an EC50 [1] of 0.0165 µg/mL and an EC50 [2] of 0.0182 µg/mL.

B2: fully humanized anti-human Fn14 antibody 4-1h (antibody, human IgG1, kappa, L234A L235A, V domains shown)
VH: QVQLQQWGAGLLKPSETLSLTCAVYGGSFSGYYWSWIRQPPGKGLEWIGEINHRGSTNSNPSLKSRDTISVDTSKNQFSLRLRSVTAADTAVYYCAREGISGSMGIYDYSGMDVWGQGTTVTVSS
VL: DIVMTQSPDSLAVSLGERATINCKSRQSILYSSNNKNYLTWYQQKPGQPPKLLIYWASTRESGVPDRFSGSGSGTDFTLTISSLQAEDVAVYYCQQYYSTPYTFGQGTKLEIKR
modifications: most of the purified antibodies had pyroglutamylation at the N terminal of the heavy chain and deletion of lysine at the C terminal (Example 5)
notes: human kappa light chain; Expressed in CHO-K1SV cells; also called fully humanized antibody of 4-1
With B2 the “IC50 (ng/mL), inhibition of Tweak-induced NFkB activation (luciferase reporter, NFkB/HEK293 cells), geometric mean of three trials” value [3] was 41.5 ng/mL, the EC50 [4] was 0.0232 µg/mL and the EC50 [5] was 0.0304 µg/mL.
